Ends that are not written are not given here. * marks the point of attachment. Biotin = O=C1N[C@H]2[C@H](CS[C@H]2CCCCC(=O)*)N1; ethylene glycol linker = not defined here
T1: pTag1 peptide (PDRVRAVSHWSS), biotinylated (reading uncertain)
T1 construct: Immobilised on Streptavidin biosensors
T1 peptide: {Biotin-ethylene glycol linker}-PDRVRAVSHWSS

T2: recombinant human β-catenin, full-length (human, UniProt P35222 1-781, limits assumed)
T2 construct: Purified from E. coli; also called full-length β-catenin
T2 sequence (looked up): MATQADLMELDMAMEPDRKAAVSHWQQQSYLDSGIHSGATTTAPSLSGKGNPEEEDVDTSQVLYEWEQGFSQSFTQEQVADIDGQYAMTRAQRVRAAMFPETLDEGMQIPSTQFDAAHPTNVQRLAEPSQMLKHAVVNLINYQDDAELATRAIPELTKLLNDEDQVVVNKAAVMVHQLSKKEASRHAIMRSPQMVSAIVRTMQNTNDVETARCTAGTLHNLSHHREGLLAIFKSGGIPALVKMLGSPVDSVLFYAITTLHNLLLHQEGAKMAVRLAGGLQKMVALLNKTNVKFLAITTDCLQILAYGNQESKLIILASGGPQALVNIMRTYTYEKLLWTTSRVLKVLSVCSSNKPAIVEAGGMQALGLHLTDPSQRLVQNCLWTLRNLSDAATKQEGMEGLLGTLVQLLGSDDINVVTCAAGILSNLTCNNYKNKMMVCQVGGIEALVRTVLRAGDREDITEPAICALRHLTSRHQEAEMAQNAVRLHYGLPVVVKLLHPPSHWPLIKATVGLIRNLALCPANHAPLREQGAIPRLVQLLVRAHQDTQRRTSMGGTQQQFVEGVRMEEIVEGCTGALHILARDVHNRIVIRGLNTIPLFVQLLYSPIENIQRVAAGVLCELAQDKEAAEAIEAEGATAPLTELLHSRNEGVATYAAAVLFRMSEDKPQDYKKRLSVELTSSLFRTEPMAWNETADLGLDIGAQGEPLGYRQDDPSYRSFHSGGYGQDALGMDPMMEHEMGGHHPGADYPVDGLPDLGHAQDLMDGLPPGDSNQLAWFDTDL

T3: BC2T D2K
T3 construct: positional scanning library member
T3 peptide: Ac-PKRKAAVSHWQQ-NH2

T4: BC2T D2N
T4 construct: positional scanning library member
T4 peptide: Ac-PNRKAAVSHWQQ-NH2


What was measured:
[1] = molecular target: T1, pTag1 peptide (PDRVRAVSHWSS), …; test: biolayer interferometry, biotinylated peptide on Streptavidin biosensor; reference original BC2T (SEQ ID NO:4)
Protocol: Biolayer interferometry (BLI)-based affinity measurements were used to assess two improved variations of the original BC2T sequence (a: […], pTag1 SEQ ID NO:33; b: […], pTag2 SEQ ID NO:34) in comparison with the original BC2T sequence (c: BC2T SEQ ID NO:4).
The shaking rate was 1200 rpm. As a reference, each peptide was also incubated with BLItz buffer only according to the protocol above. […] The sensor was regenerated by sequential dips into 10 mM glycine pH 2.0 and BLItz buffer (repeated three times). Raw data were analysed using the software BLItz Pro (fortéBio) and a 1:1 binding model.

[2] = molecular target: T2, recombinant human β-catenin, full-length; test: not stated at this place (description)
Protocol: The dissociation was induced by two injections of regeneration solution of 15 μl each at the identical flow rates.

BC2T D2K = molecular target: T3, BC2T D2K; test: positional peptide library pulldown on immobilised Nb, LC-MS of supernatant; signal ratio to control GFP-Nb (1 = not captured, near 0 = captured)
Outline: (§1)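 Unbound peptide left in supernatant after 1 h pulldown in PBS/0.01% CHAPS measured by reversed-phase LC-MS (8–30% eluent B gradient, 20 min).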

BC2T D2N = molecular target: T4, BC2T D2N; test: as above
Outline: as §1

Row | Binder | fold slower koff than for original BC2T [1] [fold] | Kd [2] [nM] | ratio (BC2T D2K) | ratio (BC2T D2N)
1 | BC2 nanobody (VHH, Alpaca VHH, 122 aa; also called BC2-Nb; BC2 nanotrap (BC2-Nb immobilized on agarose/Sepharose beads); not shown: C-terminal 6xHis-tag added by the pHEN6 vector) VHH: QVQLVESGGGLVQPGGSLTLSCTASGFTLDHYDIGWFRQAPGKEREGVSCINNSDDDTYYADSVKGRFTIFMDNAKDTVYLQMNSLKPEDTAIYYCAEARGCKRGRYEYDFWGQGTQVTVSS | 7 | 3.7 |  | 
2 | BC2-NbR106E (VHH, headlock mutant of BC2-Nb; immobilised on beads in this assay) VHH: QVQLVESGGGLVQPGGSLTLSCTASGFTLDHYDIGWFRQAPGKEREGVSCINNSDDDTYYADSVKGRFTIFMDNAKDTVYLQMNSLKPEDTAIYYCAEARGCKRGEYEYDFWGQGTQVTVSS |  |  | 0.1 | 0.2

— patent US20170137467A1 (CHROMOTEK, published 2017)
